Tests used:
purified protein [1] = substrate: NC(=O)c1ccc[n+]([C@@H]2O[C@H](COP(=O)(O)OP(=O)(O)OC[C@H]3O[C@@H](n4cnc5c(N)ncnc54)[C@H](O)[C@@H]3O)[C@@H](O)[C@H]2O)c1; experiment: purified protein; format: biochemical, Saccharina japonica; conditions: 100 mM Tris-HCl, co-substrate GDP-mannose, MBP fusion, varied: cofactor
purified protein [2] = substrate: Nc1nc2c(ncn2[C@@H]2O[C@H](COP(=O)(O)OP(=O)(O)O[C@H]3O[C@H](CO)[C@@H](O)[C@H](O)[C@@H]3O)[C@@H](O)[C@H]2O)c(=O)[nH]1; experiment: purified protein; format: biochemical, Saccharina japonica; conditions: 100 mM Tris-HCl, co-substrate NAD+, MBP fusion
[3] = optimal conditions (pH 8.25, 20 °C)
[4] = optimal conditions (pH 8.0, 30 °C)

Protein	Km (purified protein [1]; [3]) [µM]	Km (purified protein [2]; [3]) [µM]	Km (purified protein [1]; [4]) [µM]	Km (purified protein [2]; [4]) [µM]
SjGMD2 (Saccharina japonica) (protein) MSGKENVVQIGCGVVGGAYAKAYVHHGFSLTGFDVVPAIIGNMNEAGIKCFHPDDCPADLNADIVLLSVPTPLIKETQRLDMKYVWSTIPLVVKLVEQSSGLAPILVIRSTVPPGTTLKWEAEVRAKTDKPFKVAFQPEFLRAVSCEEDARAPWQIVFGCAKDADETRTRMSNCFLDFVGRDEAKLTVLNIAEAEFMKLVHNYANGLKISFANCIYGLAHELDPTIDAQKVLYLVSSTAECYLSRKYGLRVGAPYGGVCLPKDVPELTSLAPEGSVFREFLAGTGKINEWITNTPNLKVELTESPNWVSPSELII	195	177		
SjGMD1 (Saccharina japonica) (protein) MAEVMPKESIIQIGCGVVGGAYAKAYKHHGFSVRGFDVVPSIIEKMNDAGIPCCHPDDCPEDLNPEIVLLSVPTPLIKETQRLDMKYVWSTVPLVLKLVEQSTGPAPIFVIRSTVPPGMTKEWMAAVKEKATKPFHVAFQPEFLRAVSCEEDARAPWQVVFGYMTGEEEVKARMTNAFLEFVGRDESKLTVLNIAEAEFMKLAHNYANGLKISFANCIYGLANQLDPTIDAQKVLYLVSSTAECFLSRKYGLRVGAPYGGVCLPKDVPELTSLAPEGSVFREFLAGTGKINEWISGPEAKNMRVELDESPNWVSPDSLTT			139	289

From PMC4782291, “Comparative characterization of two GDP-mannose dehydrogenase genes from Saccharina japonica (Laminariales, Phaeophyceae)” (BMC Plant Biology, 2016)
